Results from patent publication US20250270332A1 (ANTLERA THERAPEUTICS, published 2025).

Biological target: T1, FZD4 recombinant extracellular domain, Fc fusion (FZD-Fc) (UniProt Q9ULV1 37-180)
T1 construct: extracellular domain; also called FZD4 ECD; not shown: Fc part of the FZD-Fc protein
T1 sequence (looked up): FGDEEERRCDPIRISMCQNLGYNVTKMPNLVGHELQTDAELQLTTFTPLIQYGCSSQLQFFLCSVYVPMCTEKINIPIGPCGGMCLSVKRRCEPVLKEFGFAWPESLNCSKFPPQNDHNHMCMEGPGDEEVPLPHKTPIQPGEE
Assay: BLI (Octet), FZD-Fc captured on AHQ sensors, agonist in solution; apparent affinity

B1: FZD4 Agonist ANT20 (bispecific antibody)
heavy 1: EVQLVESGGGLVQPGGSLRLSCAASGFDFTAYAMHWVRQAPGKGLEWVASIYPSGGYTAYADSVKGRFTISADTSKNTAYLQMNSLRAEDTAVYYCARRSYYFALDYWGQGTLVTVSSGGGGSDIQMTQSPSSLSASVGDRVTITCRASQSVSSAVAWYQQKPGKAPKLLIYSASSLYSGVPSRFSGSRSGTDFTLTISSLQPEDFATYYCQQASYAPITFGQGTKVEIKGGGGSGGGGSEPKTSDKTHTCPPCPAPELLGGPSVFLFPPKPKDTLMISRTPEVTCVVVAVSHEDPEVKFNWYVDGVEVHNAKTKPREEQYGSTYRVVSVLTVLHQDWLNGKEYKCKVSNKALPAPIEKTISKAKGQPREPMVFDLPPSREEMTKNQVSLWCMVKGFYPSDIAVEWESNGQPENNYKTTPPVLDSDGSFFLYSKLTVDKSRWQQGNVFSCSVMHEALHNHYTQKSLSLSPGKGGGSGGGSGGGSGGGSGSTGEVQLVESGGGLVQPGGSLRLSCAASGFTLSSYSMHWVRQAPGKGLEWVAYISSYYGYTYYADSVKGRFTISADTSKNTAYLQMNSLRAEDTAVYYCARPAPGHWGFDYWGQGTLVTVSSASTKGPSVFPLAPSSKSTSGGTAALGCLVKDYFPEPVTVSWNSGALTSGVHTFPAVLQSSGLYSLSSVVTVPSSSLGTQTYICNVNHKPSNTKVDKKVEPKSCDKTHT
heavy 2: EVQLVESGGGLVQPGGSLRLSCAASGFNLSYYYMHWVRQAPGKGLEWVASIYSSYGYTYYADSVKGRFTISADTSKNTAYLQMNSLRAEDTAVYYCARWSHVSGHYSGMDYWGQGTLVTVSSGGGGSDIQMTQSPSSLSASVGDRVTITCRASQSVSSAVAWYQQKPGKAPKLLIYSASDLYSGVPSRFSGSRSGTDFTLTISSLQPEDFATYYCQQYAGAGLITFGQGTKVEIKGGGGSGGGGSEPKSSDKTHTCPPCPAPELLGGPSVFLFPPKPKDTLMISRTPEVTCVVVAVSHEDPEVKFNWYVDGVEVHNAKTKPREEQYGSTYRVVSVLTVLHQDWLNGKEYKCKVSNKALPAPIEKTISKAKGQPREPQVYTLPPIRELMTSNQVSLSCAVKGFYPSDIAVEWESNGQPENNYKTTPPVLDSDGSFFLVSKLTVDKSRWQQGNVFSCSVMHEALHNHYTQKSLSLSPGKGGGSGGGSGGGSGGGSGSTGEVQLVESGGGLVQPGGSLRLSCAASGFTLSSYSMHWVRQAPGKGLEWVAYISSYYGYTYYADSVKGRFTISADTSKNTAYLQMNSLRAEDTAVYYCARPAPGHWGFDYWGQGTLVTVSSASTKGPSVFPLAPSSKSTSGGTAALGCLVKDYFPEPVTVSWNSGALTSGVHTFPAVLQSSGLYSLSSVVTVPSSSLGTQTYICNVNHKPSNTKVDKKVEPKSCDKTHT
light: DIQMTQSPSSLSASVGDRVTITCRASQSVSSAVAWYQQKPGKAPKLLIYSASSLYSGVPSRFSGSRSGTDFTLTISSLQPEDFATYYCQQWYYAPITFGQGTKVEIKRTVAAPSVFIFPPSDEQLKSGTASVVCLLNNFYPREAKVQWKVDNALQSGNSQESVTEQDSKDSTYSLSSTLTLSKADYEKHKVYACEVTHQGLSSPVTKSFNRGEC
notes: Diabody-Fc-Fab format
**Q.** With B1 as the binder, how does the Kd read?
**A.** Its Kd is 0.7 nM.
